Source: paper PMC8782417, “A PDK-1 allosteric agonist neutralizes insulin signaling derangements and beta-amyloid toxicity in neuronal cells and in vitro” (PLoS ONE, 2022)

Molecular target: T1, FAM-labeled Aβ42 peptide (carboxy-fluorescein conjugated to the N' terminus), prepared as ADDL oligomers (UniProt P05067 672-713, carboxy-fluorescein (FAM) on the N-terminus; the labelled peptide was mixed with wild type Aβ42 in a 1:2 molar ratio)
T1 construct: Aβ42, the 42-residue β-amyloid peptide cut from the amyloid precursor protein (APP); Mixed with unlabelled wild type Aβ42 (1:2 molar ratio), then incubated at 4 °C for 24 hrs to oligomerise (ADDLs); also called FAM-Aβ42; FAM tagged-Aβ; source: bought: Anaspec (FAM-Aβ42); Aβ peptides from BioSource
T1 sequence (P05067 672-713): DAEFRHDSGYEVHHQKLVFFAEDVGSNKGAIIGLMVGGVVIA
Assay: fluorescence polarisation; in solution; FAM-Aβ42 probe (ADDL oligomers) fixed at 200 nM, recombinant PDK-1 or Akt-1 titrated 0-10 μM (Akt 0 to 12.5 μM) until saturation; 30 min, 25°C; 100 mM NaCl, 20 mM phosphate pH7.4, 2 mM DTT, 0.1% BSA, 2% DMSO; 2 experiments each
Details: both partners purified

IC50: ~1000 nM
B1: Recombinant human PDK-1 (active) (enzyme, UniProt O15530 1-556, looked up)
chain: MARTTSQLYDAVPIQSSVVLCSCPSPSMVRTQTESSTPPGIPGGSRQGPAMDGTAAEPRPGAGSLQHAQPPPQPRKKRPEDFKFGKILGEGSFSTVVLARELATSREYAIKILEKRHIIKENKVPYVTRERDVMSRLDHPFFVKLYFTFQDDEKLYFGLSYAKNGELLKYIRKIGSFDETCTRFYTAEIVSALEYLHGKGIIHRDLKPENILLNEDMHIQITDFGTAKVLSPESKQARANSFVGTAQYVSPELLTEKSACKSSDLWALGCIIYQLVAGLPPFRAGNEYLIFQKIIKLEYDFPEKFFPKARDLVEKLLVLDATKRLGCEEMEGYGPLKAHPFFESVTWENLHQQTPPKLTAYLPAMSEDDEDCYGNYDNLLSQFGCMQVSSSSSSHSLSASDTGLPQRSGSNIEQYIHDLDSNSFELDLQFSEDEKRLLLEKQAGGNPWHQFVENNLILKMGPVDKRKGLFARRRQLLLTEGPHLYYVDPVNKVLKGEIPWSQELRPEAKNFKTFFVHTPNRTYYLMDPSGNAHKWCRKIQEVWRQRYQSHPDAAVQ
notes: phosphoinositide-dependent protein kinase-1 (PDK-1), human, recombinant, active; printed size 59 kDa; Commercial protein; also called phosphoinositide-dependent protein kinase-1; source: bought: Amsbio
